This is an account of results in patent US20190225669A1 (ACCELERON PHARMA, published 2019).

B2: BMP2 (ligand, UniProt P12643 283-396, looked up)
chain: QAKHKQRKRLKSSCKRHPLYVDFSDVGWNDWIVAPPGYHAFYCHGECPFPLADHLNSTNHAIVQTLVNSVNSKIPKACCVPTELSAISMLYLDENEKVVLKNYQDMVVEGCGCR
B3: GDF6 (ligand, UniProt Q6KF10 336-455, looked up)
chain: TAFASRHGKRHGKKSRLRCSKKPLHVNFKELGWDDWIIAPLEYEAYHCEGVCDFPLRSHLEPTNHAIIQTLMNSMDPGSTPPSCCVPTKLTPISILYIDAGNNVVYKQYEDMVVESCGCR
notes: also called BMP13

Read-outs that look alike come from different tables or passages of the source.

Test [1] concerns the target T1, GDF8 (UniProt O14793 267-375).
T1 construct: also called myostatin
T1 sequence (looked up): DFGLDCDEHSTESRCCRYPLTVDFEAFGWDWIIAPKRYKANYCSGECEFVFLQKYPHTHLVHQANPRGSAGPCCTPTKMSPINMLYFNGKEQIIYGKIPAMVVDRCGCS
As to the kind of experiment: Biacore SPR. The procedure:
(§1) Ligands were injected and allowed to flow over the captured receptor protein.
On the technique in general: In SPR one partner is held on a chip, and binding of the other changes the refractive index at the surface.

In test [2] the target is T2, activin A (UniProt P08476 311-426).
T2 sequence (looked up): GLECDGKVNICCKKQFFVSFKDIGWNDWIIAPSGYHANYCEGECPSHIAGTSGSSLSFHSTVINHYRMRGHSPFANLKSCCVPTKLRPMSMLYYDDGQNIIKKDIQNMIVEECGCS
Description: Biacore SPR. The procedure: as §1

Test [3] deals with T3, BMP5 (UniProt P22003 317-454, limits assumed).
T3 sequence (looked up): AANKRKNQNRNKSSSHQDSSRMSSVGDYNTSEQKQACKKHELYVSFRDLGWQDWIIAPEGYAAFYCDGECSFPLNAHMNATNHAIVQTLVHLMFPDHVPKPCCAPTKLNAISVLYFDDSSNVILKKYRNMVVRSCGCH
As to the kind of experiment: Biacore SPR. The method, then:
as §1

In test [4] the target is T4, activin B (UniProt P09529 293-407).
T4 sequence (looked up): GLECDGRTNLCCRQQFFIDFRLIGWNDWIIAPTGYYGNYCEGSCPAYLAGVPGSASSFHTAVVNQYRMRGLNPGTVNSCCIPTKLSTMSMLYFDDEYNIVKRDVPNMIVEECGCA
As to the kind of experiment: Biacore SPR. The procedure: as §1

Test [5] addresses T5, GDF11 (UniProt O95390 299-407).
T5 construct: also called BMP11
T5 sequence (looked up): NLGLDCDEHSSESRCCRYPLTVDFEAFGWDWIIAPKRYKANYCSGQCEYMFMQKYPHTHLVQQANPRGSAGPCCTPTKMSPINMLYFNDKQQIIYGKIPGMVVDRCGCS
As to the kind of experiment: Biacore SPR. The procedure: as §1

In test [6] the target is T6, GDF7 (UniProt Q7Z4P5 322-450, limits assumed).
T6 construct: also called BMP12
T6 sequence (looked up): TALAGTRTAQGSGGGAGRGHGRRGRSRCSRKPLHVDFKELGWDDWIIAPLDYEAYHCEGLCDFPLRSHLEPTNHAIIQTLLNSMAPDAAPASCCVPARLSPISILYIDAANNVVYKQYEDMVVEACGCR
As to the kind of experiment: Biacore SPR. The procedure: as §1

In test [7] the target is T7, BMP10 (UniProt O95393 317-424).
T7 sequence (looked up): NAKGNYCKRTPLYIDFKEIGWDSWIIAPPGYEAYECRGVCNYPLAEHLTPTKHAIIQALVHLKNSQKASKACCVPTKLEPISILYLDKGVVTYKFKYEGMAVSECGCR
Description: Biacore SPR. The method, then: as §1

Test [8] deals with T8, BMP4 (UniProt P12644 293-408).
T8 sequence (looked up): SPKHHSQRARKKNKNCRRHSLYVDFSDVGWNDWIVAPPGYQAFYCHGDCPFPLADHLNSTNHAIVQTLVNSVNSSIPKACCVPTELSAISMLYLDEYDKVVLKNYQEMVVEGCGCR
As to the kind of experiment: Biacore SPR. The procedure:
as §1

For test [9], the target named is T9, GDF5 (UniProt P43026 382-501).
T9 construct: also called BMP14
T9 sequence (looked up): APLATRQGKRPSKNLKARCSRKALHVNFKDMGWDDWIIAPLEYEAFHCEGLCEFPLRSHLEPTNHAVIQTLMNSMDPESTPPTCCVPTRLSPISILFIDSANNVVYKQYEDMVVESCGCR
Description: Biacore SPR. The procedure: as §1

The target of test [10] is T10, BMP6 (UniProt P22004 382-513, limits assumed).
T10 sequence (looked up): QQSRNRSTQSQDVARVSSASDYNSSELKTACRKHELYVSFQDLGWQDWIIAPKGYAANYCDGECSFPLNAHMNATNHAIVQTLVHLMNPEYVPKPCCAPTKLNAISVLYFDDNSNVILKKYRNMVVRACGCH
Description: Biacore SPR. The procedure:
as §1

For test [11], the target named is B3. Description: Biacore SPR. The procedure:
as §1

For test [12], the target named is B2. As to the kind of experiment: Biacore SPR. The procedure:
as §1

The target of test [13] is T11, BMP7 (UniProt P18075 293-431).
T11 sequence (looked up): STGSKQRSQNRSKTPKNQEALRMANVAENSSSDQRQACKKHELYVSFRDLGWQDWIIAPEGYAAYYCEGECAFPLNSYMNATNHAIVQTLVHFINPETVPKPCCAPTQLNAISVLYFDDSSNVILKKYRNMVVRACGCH
As to the kind of experiment: Biacore SPR. The method, then:
as §1

The target of test [14] is T12, GDF3 (UniProt Q9NR23 251-364).
T12 sequence (looked up): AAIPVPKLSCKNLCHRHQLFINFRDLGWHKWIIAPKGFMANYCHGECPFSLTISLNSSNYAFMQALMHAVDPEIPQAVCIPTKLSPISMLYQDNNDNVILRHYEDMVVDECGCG
Description: Biacore SPR. The procedure:
as §1

In test [15] the target is T13, BMP9 (UniProt Q9UK05 320-429).
T13 construct: also called GDF2
T13 sequence (looked up): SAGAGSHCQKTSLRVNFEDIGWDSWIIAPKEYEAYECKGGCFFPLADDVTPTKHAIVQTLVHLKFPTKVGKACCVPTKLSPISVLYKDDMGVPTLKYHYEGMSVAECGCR
Description: Biacore SPR; kinetics indeterminate (transient). The method, then: as §1

In test [16] the target is T14, BMPRII-Fc homodimer (UniProt Q13873 27-150).
T14 construct: extracellular domain
T14 sequence (looked up): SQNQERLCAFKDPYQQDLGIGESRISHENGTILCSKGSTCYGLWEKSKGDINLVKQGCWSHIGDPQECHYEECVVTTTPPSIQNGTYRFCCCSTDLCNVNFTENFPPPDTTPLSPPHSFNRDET
Description: Biacore SPR; kinetics indeterminate (transient).

Test [17] concerns the target T15, ALK3-Fc homodimer (UniProt P36894 24-152).
T15 construct: extracellular domain
As to the kind of experiment: Biacore SPR. The procedure: as §1

Test [18] has as its target T15, ALK3-Fc homodimer. Description: Biacore SPR. The procedure:
as §1
The source holds these as a separate data set.

For orientation: Kd means the equilibrium constant for the complex coming apart. One may read the koff as the rate constant with which the complex falls apart. Higher therefore signals a short-lived complex. For orientation: kon means the rate constant with which the complex forms. Higher therefore signals faster complex formation.

B1: ActRIIB-Fc:ALK3-Fc heterodimer (Fc fusion)
chain 1: GRGEAETRECIYYNANWELERTNQSGLERCEGEQDKRLHCYASWRNSSGTIELVKKGCWLDDFNCYDRQECVATEENPQVYFCCCEGNFCNERFTHLPEAGGPEVTYEPPPTAPTGGGTHTCPPCPAPELLGGPSVFLFPPKPKDTLMISRTPEVTCVVVDVSHEDPEVKFNWYVDGVEVHNAKTKPREEQYNSTYRVVSVLTVLHQDWLNGKEYKCKVSNKALPAPIEKTISKAKGQPREPQVYTLPPSRKEMTKNQVSLTCLVKGFYPSDIAVEWESNGQPENNYKTTPPVLKSDGSFFLYSKLTVDKSRWQQGNVFSCSVMHEALHNHYTQKSLSLSPGK
chain 2: GAQNLDSMLHGTGMKSDSDQKKSENGVTLAPEDTLPFLKCYCSGHCPDDAINNTCITNGHCFAIIEEDDQGETTLASGCMKYEGSDFQCKDSPKAQLRRTIECCRTNLCNQYLQPTLPPVVIGPFFDGSIRTGGGTHTCPPCPAPELLGGPSVFLFPPKPKDTLMISRTPEVTCVVVDVSHEDPEVKFNWYVDGVEVHNAKTKPREEQYNSTYRVVSVLTVLHQDWLNGKEYKCKVSNKALPAPIEKTISKAKGQPREPQVYTLPPSREEMTKNQVSLTCLVKGFYPSDIAVEWESNGQPENNYDTTPPVLDSDGSFFLYSDLTVDKSRWQQGNVFSCSVMHEALHNHYTQKSLSLSPG
notes: C-terminal Lys optional; also called ActRIIB-Fc:ALK3-Fc heterodimeric complex
In the case of B1, the Kd in test [1] came out at 0.31 nM; in [2], 0.15 nM; in test [3], 0.64 nM; in [4], 0.2 nM; in test [5], 0.066 nM; in test [6], 0.052 nM. Moreover, the Kd in [7] amounted to 0.031 nM; in [8] it was 0.003 nM; in test [9], 0.07 nM; in test [10] it was 0.015 nM; in test [11], 1.6 nM; in [12] it was 0.001 nM. The Kd is 1.9 nM in test [13], 5.9 nM in [14] and above 33 nM in test [15]. Moreover, the koff in test [1] is 0.00092 s⁻¹; in [2], 0.005 s⁻¹; in test [3], 0.00058 s⁻¹; in test [4] it was 0.00057 s⁻¹; in test [5], 0.0011 s⁻¹; in test [6] it was 0.0004 s⁻¹. Further, the koff came out at 0.00094 s⁻¹ in test [7]; 6.5e-06 s⁻¹ in test [8]; 0.00083 s⁻¹ in test [9]; 0.00029 s⁻¹ in test [10]; 0.00045 s⁻¹ in test [11]; 1.1e-05 s⁻¹ in test [12]. Further, the koff stood at 0.0015 s⁻¹ in test [13] and 0.082 s⁻¹ in test [14]. Besides, the association rate constant (kon) in test [1] is 3e+06 M⁻¹ s⁻¹; in test [2] it was 3.4e+07 M⁻¹ s⁻¹; in test [3], 900000 M⁻¹ s⁻¹; in test [4], 2.8e+06 M⁻¹ s⁻¹; in [5] it was 1.6e+07 M⁻¹ s⁻¹; in [6] it was 7.5e+06 M⁻¹ s⁻¹. Also, the kon amounted to 3e+07 M⁻¹ s⁻¹ in test [7]; 2.6e+06 M⁻¹ s⁻¹ in test [8]; 1.2e+07 M⁻¹ s⁻¹ in test [9]; 2e+07 M⁻¹ s⁻¹ in test [10]; 280000 M⁻¹ s⁻¹ in test [11]; 8e+06 M⁻¹ s⁻¹ in [12]. In addition, the results for the kon in test [13] and in [14] were 820000 M⁻¹ s⁻¹ and 1.4e+07 M⁻¹ s⁻¹, respectively.
Consider B2, for which the Kd in test [16] was above 2000 nM.
With B3, the Kd was above 88 nM in [16], 40 nM in test [17] and 40 nM in [18]. The koff in [17] and in test [18] was 0.0013 s⁻¹ each time. In addition, the kon in [17] and in [18] was 34000 M⁻¹ s⁻¹ in each case.
